Series [1] concerns the molecule itself. Description: SAXS; in solution, BM29 BioSAXS beamline (ESRF); molecular weight from extrapolated I0; CLAMP 1-153 at 2.3 mg/mL, CLAMP 1-113 at 1.0 and 7.0 mg/mL, CLAMP 87-153 at 2.5 and 10.0 mg/mL.
Series [2] deals with the molecule itself. The series is described as follows: cross-linking; thioredoxin-tagged proteins at 5 μM, increasing concentrations of glutaraldehyde, 10 min at room temperature, 20 mM HEPES pH 7.7, 150 mM NaCl, 20 mM imidazole, 1 mM β-mercaptoethanol; SDS-PAGE, silver staining.
Series [3] concerns the molecule itself. The series is described as follows: SEC; Superdex S200 size-exclusion chromatography of purified CLAMP derivatives.

Data on four proteins can be found in PMC8998743, “Dimerization Activity of a Disordered N-Terminal Domain from Drosophila CLAMP Protein” (International Journal of Molecular Sciences, 2022).

B1: CLAMP^1–113 (purified, tag cleaved) (domain or fragment, D. melanogaster, UniProt Q9V9N4 1-113, looked up)
chain: MEDLTKNIIFTNAINGQPATIQYQTADGTILKQPKIEGQKTEQQPTFYYTTNGNGGTVNLAQLATTDDNKTCYIAQPVGGYNYALVNGMPLNQGAALGIATVDAQGRIQIVNQ
notes: source: E. coli BL21(DE3), purified (Ni-NTA, TEV cleavage, SOURCE15Q)
As to B1, the “stoichiometry N” value in series [1] is 2.

B2: CLAMP^1–153 (purified, tag cleaved) (domain or fragment, D. melanogaster, UniProt Q9V9N4 1-153, looked up)
chain: MEDLTKNIIFTNAINGQPATIQYQTADGTILKQPKIEGQKTEQQPTFYYTTNGNGGTVNLAQLATTDDNKTCYIAQPVGGYNYALVNGMPLNQGAALGIATVDAQGRIQIVNQNKPIAANTISNISFKCDVCSDMFPHLALLNAHKRMHTDGE
notes: as for B1
Take B2: the “stoichiometry N” value in series [1] is 2.

B3: thioredoxin-tagged CLAMP^1–127 (domain or fragment, D. melanogaster, UniProt Q9V9N4 1-127, looked up)
chain: MEDLTKNIIFTNAINGQPATIQYQTADGTILKQPKIEGQKTEQQPTFYYTTNGNGGTVNLAQLATTDDNKTCYIAQPVGGYNYALVNGMPLNQGAALGIATVDAQGRIQIVNQNKPIAANTISNISF
notes: Used in glutaraldehyde cross-linking with the thioredoxin tag on; source: E. coli BL21(DE3), purified
Turning to B3, in series [2], the binding result is “binds”.

B4: CLAMP^1–127 (purified, tag cleaved) (domain or fragment, D. melanogaster, UniProt Q9V9N4 1-127, looked up)
chain: MEDLTKNIIFTNAINGQPATIQYQTADGTILKQPKIEGQKTEQQPTFYYTTNGNGGTVNLAQLATTDDNKTCYIAQPVGGYNYALVNGMPLNQGAALGIATVDAQGRIQIVNQNKPIAANTISNISF
notes: as for B1
Take B4: in series [3], the binding result is “binds”.
